The values below come from the supplement of paper PMC12042874.

± gives the uncertainty stated by the source.

The data set in a line: amyloid nucleation score (Sup35N fusion, yeast selection) (log enrichment); library NNK1; higher = more nucleation; inactive = no reads after selection. An outline of the steps:
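The nucleation score is a DiMSum log enrichment of output over input reads, centred on the mode score of non-aggregating sequences. Sequences under 100 input reads were excluded, and reads came from Illumina sequencing of plasmid inserts. Psi-negative yeast expressing Sup35N fused to peptides of 20 random codons were induced with 100 μM copper sulfate for 24 hours and grown 7 days at 30°C on medium lacking adenine and uracil. Random libraries had three technical output replicates.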
For SWLDLNLIDHQAFAFSSFGL, the amyloid nucleation score is -0.043 ± 0.45.

VSVSNISSVLTLSGKMLIST returned an amyloid nucleation score of -0.031 ± 0.39.

The substance LIFQVSQSIGTYSCTKSEGR yielded an amyloid nucleation score of 0.756 ± 0.2.

RGYAVNAGYSVCMYWLGTLL: the amyloid nucleation score was found to be 0.695 ± 0.53.

In turn, HISGLPVWLSCSWFWPKRLL showed an amyloid nucleation score of 0.08 ± 0.32.

With NKNTS, the amyloid nucleation score was -0.45 ± 0.54.

In turn, ELVSVGLSAIHSSDYNFSFN displayed an amyloid nucleation score of 0.45 ± 0.7.

As for VAAACFFNRCWEHTYVMIVK, the amyloid nucleation score stood at 3.1 ± 0.17.

On to FLSICVDSVKFVFGGVWTSQ, for which the amyloid nucleation score is -0.882 ± 0.53.

For NRYFRMCFRLWFDPTWSVRA, the amyloid nucleation score was 0.681 ± 0.85.

Take MNPGG: the amyloid nucleation score is -0.026 ± 0.21.

Take FHLPALTSSLPA: the amyloid nucleation score worked out at 0.102 ± 0.35.

YLDDIH: the amyloid nucleation score is -0.105 ± 0.44.

As for ATQSVFSKWVGGIRWWCVLL, the amyloid nucleation score was -0.65 ± 0.88.

As for LSLSMPYSGVLSELYAIATF, the amyloid nucleation score was -0.384 ± 0.27.

Take YPIYIVWVFIVITICVANDS: the amyloid nucleation score was -0.072 ± 0.31.

FDRRLCFVG displayed an amyloid nucleation score of 0.024 ± 0.52.

The substance LETRLVYLWENLPLAQTNVA returned an amyloid nucleation score of 0.238 ± 0.48.

IDCGSFSYKQSMQLMCKSAQ came in with an amyloid nucleation score of -0.19 ± 0.28.

RDEVGIVHRMSEPKRYGGIK had an amyloid nucleation score of -1.11 ± 1.5.

GTLFYTDPLLCIVYLINLCR had an amyloid nucleation score of -0.33 ± 0.56.

RSEATLYRRSSDGVKNVLQK yielded an amyloid nucleation score of -0.535 ± 0.32.

LKSIPNCFRHFYVNTFS returned an amyloid nucleation score of -0.923 ± 0.49.

As to LYGYCFMLVSRESFLVRSGW, the amyloid nucleation score is -0.272 ± 0.52.

PISMKQVKREEMGFTPAVSS showed an amyloid nucleation score of -0.352 ± 0.95.

Substance CCWSYR yielded an amyloid nucleation score of 2.51 ± 0.13.

Consider DARFLSWNANMID, for which the amyloid nucleation score stood at 0.31 ± 0.19.

In turn, SCFLC returned an amyloid nucleation score of 1.4 ± 0.18.

Turning to VAEVKRFCELLLK, the amyloid nucleation score is -0.29 ± 1.7.

Substance RTWAEWCLVLVSGFGSGAML showed an amyloid nucleation score of 0.086 ± 0.54.

With LSIRNTSTSRITTLFLGL, the amyloid nucleation score came to 1.88 ± 0.4.

Turning to STTVSIYWCRWGGSSLHDV, the amyloid nucleation score turned out to be 0.141 ± 1.4.

YLGQWFNYTCYQWVMV had an amyloid nucleation score of 1.37 ± 0.21.

SVVRTMSLLATFLRV came in with an amyloid nucleation score of -0.795 ± 1.6.

In turn, KYFYMMTAYRRWRRDPYLGG displayed an amyloid nucleation score of -0.54 ± 0.62.

In turn, KVLLR had an amyloid nucleation score of 0.725 ± 0.36.

In the case of MSDKSTWYC, the amyloid nucleation score was determined as 0.157 ± 0.61.

The substance FNWSRNHGF yielded an amyloid nucleation score of 0.013 ± 0.76.

EINKLS gave an amyloid nucleation score of -1.27 ± 1.1.

Turning to LVTFRGGYNVDVIMWNNVRR, the amyloid nucleation score came out at 3.69 ± 0.063.

For the substance IVVFQ, the amyloid nucleation score is -0.887 ± 1.8.

For ARTKGSVAPTTLHANNGAWS, the amyloid nucleation score was -0.053 ± 0.39.

CILGNME: the amyloid nucleation score result is “inactive”.

The substance WEWIQDVWVPHISDPLSWAI yielded an amyloid nucleation score of -1.2 ± 0.83.

Take SWFKSWSPKALSARIGRVYL: the amyloid nucleation score is -0.176 ± 0.55.

The substance IYFVIDCN registered an amyloid nucleation score of 0.835 ± 0.56.

For GVGMAPATLGPETHEKSELM, the amyloid nucleation score amounted to 0.282 ± 0.3.

For NNFFITVHSLLIRSSTHMR, the amyloid nucleation score was found to be 0.015 ± 0.37.

In turn, PPMDIGLLPVRI returned an amyloid nucleation score of -1.69 ± 1.7.

On to SKFVSKNCWTARGAL, for which the amyloid nucleation score was -0.166 ± 0.48.

In the case of MHTEFFGGMAHTTLWDVMSP, the amyloid nucleation score is -0.977 ± 0.77.

LFLFRSH yielded an amyloid nucleation score of 5.445 ± 0.048.

For the substance NWMTLRWVLGGLSNGFDGSH, the amyloid nucleation score turned out to be 4.41 ± 0.073.

Take GSIPDCGIGICRYKLSGIMK: the amyloid nucleation score was 0.047 ± 0.63.

For GYASAVVHHVGWNPTVGSLM, the amyloid nucleation score is -0.115 ± 0.42.

For SNLDLHRSVLSRLGKYLDFP, the amyloid nucleation score was determined as 5.35 ± 0.081.

With KRYDLRLKMMTTPI, the amyloid nucleation score turned out to be 1.29 ± 0.41.

Consider NNEPGLGEK, for which the amyloid nucleation score is -0.598 ± 0.92.

For the substance TRIMVDFLLDWHCRMVKLVN, the amyloid nucleation score amounted to 0.33 ± 0.44.

Substance AFSLR displayed an amyloid nucleation score of -0.437 ± 0.57.

Regarding RGNACVT, the amyloid nucleation score was 0.598 ± 0.34.

Consider TIFLINIPANFSMGMLHAHR, for which the amyloid nucleation score was determined as 0.303 ± 0.86.

On to LRLLFLNNSATCLVTHVGNQ, for which the amyloid nucleation score was determined as 1.38 ± 0.74.

FMSAV displayed an amyloid nucleation score of 0.374 ± 1.2.

LHWWRFFVEVTLPCLGFLLS showed an amyloid nucleation score of -0.308 ± 0.76.

For the substance WCRCTINFRHEDLNPFFNPK, the amyloid nucleation score was found to be 2.01 ± 0.16.

As to LKFSVFVKASPCTIRRS, the amyloid nucleation score was -0.218 ± 0.5.

As to RYCCHMSRSTYNIICCRWTN, the amyloid nucleation score result is “inactive”.

Turning to MMTACLFIIF, the amyloid nucleation score was determined as 5.925 ± 0.057.

Turning to VSHIAPRWPLSRTIRETQRM, the amyloid nucleation score worked out at 0.479 ± 1.2.

In turn, CKYVRTQVWSHRLPADNCLT showed an amyloid nucleation score of -0.997 ± 0.98.

LFSSLRRGRHSLPIPLPMNL gave an amyloid nucleation score of 0.013 ± 0.36.

VVESGVFWDSSYNFKGDTVW displayed an amyloid nucleation score of 0.532 ± 0.92.

On to DLVTH, for which the amyloid nucleation score was 0.015 ± 0.83.

Regarding IIRNVTL, the amyloid nucleation score is 0.263 ± 0.24.

ILIDYRGSEPG returned an amyloid nucleation score of 0.224 ± 1.4.

Substance CLIISRVVRSVTNIMEMNNG displayed an amyloid nucleation score of 0.251 ± 0.45.

As to SITFRRSYTNM, the amyloid nucleation score came to 0.411 ± 0.67.

With NDYNWKYGFLRWCVLYEVM, the amyloid nucleation score amounted to 0.117 ± 0.4.

In turn, LFCIERWMSNCFG gave an amyloid nucleation score of 0.112 ± 0.75.

The substance MYIKRTGQTGWAVGGSRTPR yielded an amyloid nucleation score of 1.11 ± 0.65.

Substance FAELRFFCCDS came in with an amyloid nucleation score of 2.45 ± 0.21.

Regarding LMWWGMNDSR, the amyloid nucleation score was -0.025 ± 0.28.

With FCAGGMGNCKCWLCFLRSTM, the amyloid nucleation score is -1.33 ± 0.7.

YKHKTFIPRFTYNETVVYYV yielded an amyloid nucleation score of 4.85 ± 0.087.

With RWNRTRFPHLYCKIGEKCIY, the amyloid nucleation score worked out at 0.312 ± 0.33.

In the case of FHLRSCIRFSYLMTDWQAFQ, the amyloid nucleation score worked out at 0.69 ± 1.

As for LNSAVDMGCFVVNLYMLCIY, the amyloid nucleation score amounted to 4.22 ± 0.059.

With FDGCNTKGNMSFAWSRPLGM, the amyloid nucleation score is 0.246 ± 0.97.

For the substance RISRSISVDALMIRAGYLPN, the amyloid nucleation score result was “inactive”.

MEVKISVRFQFVLI yielded an amyloid nucleation score of -0.355 ± 0.6.

YCGGRKG showed an amyloid nucleation score of 0.144 ± 0.34.

GLNYLNFTREYYHLTWVVVP registered an amyloid nucleation score of 4.47 ± 0.091.

TYYSGDSAYLPIDAIMLVWY had an amyloid nucleation score of -1.07 ± 0.65.

In turn, VAPQGNPMWSKDLL registered an amyloid nucleation score of 1.8 ± 0.18.

As for WDWVYGKFLR, the amyloid nucleation score was 0.736 ± 0.26.

As for YKCMSKIFQFLVWAGEEWGL, the amyloid nucleation score is -0.398 ± 1.1.

SSPKTRMVEGVCCYFVGSIY came in with an amyloid nucleation score of 0.704 ± 1.2.

Take NCCCEAKTWRLIDCIITIVI: the amyloid nucleation score amounted to 0.711 ± 0.13.

With FDRWFRQGNGLVV, the amyloid nucleation score is 0.225 ± 0.78.

In the case of APSAVS, the amyloid nucleation score was 0.876 ± 0.53.

With SLRILRSRS, the amyloid nucleation score entry was “inactive”.

KGRVKGSVASSLS had an amyloid nucleation score of -0.309 ± 0.57.

Consider SDGCYALIWFGREQ, for which the amyloid nucleation score is -1.24 ± 1.1.

Take RTGYPGSEVMGTRSFLSRNS: the amyloid nucleation score is -0.385 ± 1.9.

Regarding LRFHEGVLGAMFEGSVCVLE, the amyloid nucleation score was -0.01 ± 1.5.

On to VFYACSTPRPSQNASVDFRL, for which the amyloid nucleation score was -0.035 ± 0.61.

SASYNFTSCFKFLRRKIVIK yielded an amyloid nucleation score of 0.196 ± 0.24.

In turn, SQRNLHTTYTYVAYRDYAER came in with an amyloid nucleation score of 0.957 ± 0.29.

Substance IGSGYW returned an amyloid nucleation score of -0.091 ± 0.52.

For RMLQHLVFLAGLNDVFAKGF, the amyloid nucleation score amounted to 1.43 ± 0.15.

For YRVLELFYFV, the amyloid nucleation score result is “inactive”.

In turn, LTGGLMV gave an amyloid nucleation score of -0.06 ± 0.34.

ASKMALYPG returned an amyloid nucleation score of 0.366 ± 0.56.

With LSMKSHFWKMMFTGNWSYVC, the amyloid nucleation score result is “inactive”.

CWDFISCSGQVVNGWSKDSS had an amyloid nucleation score of -0.008 ± 0.42.

On to FHICDNRLDCSLIVVANSWK, for which the amyloid nucleation score was found to be 2.65 ± 0.18.

Take NRVSFYATTNFSISRFGSWG: the amyloid nucleation score result is “inactive”.

With IGSNK, the amyloid nucleation score is -1.38 ± 0.86.

Regarding SSRNDLDVQYLTVDQRPSMP, the amyloid nucleation score was determined as 1.66 ± 0.56.

THYYCVLTGKITRRVLYILL registered an amyloid nucleation score of -1.13 ± 0.67.
